# Reference: patent publication US20170233490A1 (Hoffmann-La Roche, published 2017)
# T1: human HER4 Extracellular Domain (ECD) (human, UniProt Q15303 26-651)
# T1 construct: also called Her4 ECD; HER4-ECD
# T1 sequence: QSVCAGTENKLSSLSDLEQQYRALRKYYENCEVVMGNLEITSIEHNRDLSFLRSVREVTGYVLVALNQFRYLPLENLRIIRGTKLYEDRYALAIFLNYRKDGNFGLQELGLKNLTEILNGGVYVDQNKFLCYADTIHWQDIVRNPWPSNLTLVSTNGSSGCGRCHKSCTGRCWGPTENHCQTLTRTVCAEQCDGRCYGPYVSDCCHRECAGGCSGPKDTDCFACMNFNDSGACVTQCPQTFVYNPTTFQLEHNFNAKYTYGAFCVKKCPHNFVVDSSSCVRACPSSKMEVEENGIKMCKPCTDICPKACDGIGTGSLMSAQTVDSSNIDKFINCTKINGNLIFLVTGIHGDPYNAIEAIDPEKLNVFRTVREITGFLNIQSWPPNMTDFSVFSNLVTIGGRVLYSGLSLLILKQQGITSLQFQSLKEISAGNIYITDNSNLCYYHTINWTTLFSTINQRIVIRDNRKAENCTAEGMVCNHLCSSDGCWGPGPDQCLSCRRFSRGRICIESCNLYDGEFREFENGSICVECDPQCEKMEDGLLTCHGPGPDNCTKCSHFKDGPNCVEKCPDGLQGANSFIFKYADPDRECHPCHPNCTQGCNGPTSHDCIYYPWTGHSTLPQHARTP
# T2: HER4 ECD-HRG complex (human, UniProt Q15303 26-651)
# T2 construct: HER4 ECD preincubated with a 5-fold molar excess of Heregulin
# T2 sequence 1: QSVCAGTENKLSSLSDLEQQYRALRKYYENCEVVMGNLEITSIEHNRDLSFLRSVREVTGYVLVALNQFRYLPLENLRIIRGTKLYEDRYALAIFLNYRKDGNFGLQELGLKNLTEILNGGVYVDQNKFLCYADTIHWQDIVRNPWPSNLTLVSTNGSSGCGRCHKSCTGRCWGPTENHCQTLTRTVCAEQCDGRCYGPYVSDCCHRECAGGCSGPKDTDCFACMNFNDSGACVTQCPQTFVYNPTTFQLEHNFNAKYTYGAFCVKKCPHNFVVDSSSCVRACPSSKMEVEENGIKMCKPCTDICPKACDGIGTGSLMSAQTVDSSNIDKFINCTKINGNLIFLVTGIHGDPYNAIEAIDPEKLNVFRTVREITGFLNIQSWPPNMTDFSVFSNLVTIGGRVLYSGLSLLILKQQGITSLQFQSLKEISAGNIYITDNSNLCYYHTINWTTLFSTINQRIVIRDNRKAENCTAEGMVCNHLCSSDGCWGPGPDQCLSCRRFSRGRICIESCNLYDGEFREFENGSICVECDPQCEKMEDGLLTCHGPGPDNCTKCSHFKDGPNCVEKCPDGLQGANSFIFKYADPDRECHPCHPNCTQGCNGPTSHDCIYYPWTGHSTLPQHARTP
# T2 sequence 2: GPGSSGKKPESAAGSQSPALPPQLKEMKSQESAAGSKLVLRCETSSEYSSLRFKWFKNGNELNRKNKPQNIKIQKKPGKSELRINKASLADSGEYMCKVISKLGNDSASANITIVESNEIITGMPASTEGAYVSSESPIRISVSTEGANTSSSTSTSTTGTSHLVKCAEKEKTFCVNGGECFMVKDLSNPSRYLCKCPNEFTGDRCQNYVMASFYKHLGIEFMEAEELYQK
# Assays:
# [1] = biological target: T1, human HER4 Extracellular Domain (ECD); assay: stated in the epitope binning example
# HER3 ECD-HRG complex [2] = biological target: T3, HER3 ECD-HRG complex (human, UniProt P21860 20-643); assay: SPR (Biacore B3000, 25 °C), antibody captured by RAM-Fcγ; 90 nM Heregulin*Her-3 ECD complex injected
# T3 construct: HER3 ECD preincubated with a 3- to 6-fold molar excess of Heregulin ('open' conformation); biotinylated Her3-ECD in the ribosome display; also called HER3-ECD/HRG1β
# Method: A CMS series sensor was mounted into the system and was normalized in HBS-ET buffer (10 mM HEPES pH 7.4, 150 mM NaCl, 3 mM EDTA, 0.005% w/v Tween 20) according to the manufacturer's instructions. The sample buffer was the system buffer supplemented with 1 mg/ml CMD (Carboxymethyldextran). The system operated at 25° C. 10000 RU RAM-Fcγ (relative units of Fcγ-fragment Rabbit Anti-Mouse IgG/Jackson Laboratories) were immobilized according to the manufacturer's instructions using EDC/NHS chemistry on all flow cells. The sensor was deactivated using 1M ethanolamine. Analytes in solution were injected at 100 μl/min at different concentration steps of 0 nM, 1.1 nM, 3.7 nM, 11.1 nM, 33.1 nM and 90 nM for 2 min. The dissociation was monitored for 5 min. Acidic regeneration of the sensor surface was achieved using three consecutive injections of 10 mM Glycine pH 1.7 at 30 μl/min for 60 sec. Kinetic data were evaluated according to a Langmuir fit.
# [3] = biological target: T4, human HER3 Extracellular Domain (ECD) (human, UniProt P21860 20-643); assay: SPR (Biacore) sensorgram overlay; the legend gives 100 nM, antibody * Her-3 ECD interaction without Heregulin; buffer reference (curve 5) stays at 0 RU
# T4 construct: human recombinant, 68 kDa; 'closed' conformation without ligand; also called Her3 ECD; Her-3 ECD
# HER3 ECD-HRG complex [4] = biological target: T3, HER3 ECD-HRG complex; assay: SPR Biacore 3000, 37 C
# HER4 ECD-HRG complex = biological target: T2, HER4 ECD-HRG complex; assay: SPR Biacore 3000, 37 C
# [5] = biological target: T1, human HER4 Extracellular Domain (ECD); assay: SPR Biacore 3000, 37 C
# [6] = biological target: T4, human HER3 Extracellular Domain (ECD); assay: SPR Biacore 3000, 37 C
Binder,binding result [1],binding result (HER3 ECD-HRG complex [2]),binding result [3],Kd (HER3 ECD-HRG complex [4]),MR (HER3 ECD-HRG complex [4]),koff (HER3 ECD-HRG complex [4]),kon (HER3 ECD-HRG complex [4]),t/2diss (HER3 ECD-HRG complex [4]),Kd (HER4 ECD-HRG complex),MR (HER4 ECD-HRG complex),koff (HER4 ECD-HRG complex),kon (HER4 ECD-HRG complex),t/2diss (HER4 ECD-HRG complex),binding result [5],Kd [6],MR [6],koff [6],kon [6],t/2diss [6]
"anti-HER3 antibody M-08-11 (antibody, V domains shown, also called M-011; <Her3> M-08-11) VH: QAYLQQSGAELMRPGASVRMSCQASGYTFTSYTIHWLKQTPRQGLEWIGAIYPRNGDFSYNQKFKDKASLTVDTSSSTAYMHLSSLTSEDSAVYFCARTINYGDWFAYWGQGTLVTVSA VL: DIQMIQSPASLFVSEGETVIITCRASENIYSNLAWYHQKKGKSPQVLVYAAIKLADGVPLRFSGSGSGTQFSLKINSLQSEDFGSYYCQHFWGPPYTFGSGTNLEIK",no binding,binds,binds,,,,,,,,,,,,,,,,
"humanized variant VH-A/VL-D of anti-HER3 antibody M-05-74 (antibody, V domains shown, also called humanized DIB-74) VH: QVQLVQSGAELKKPGASVKVSCRTSGYTLTDYWIHWVRQAPGQGLEWMGYINPYTGYTESNQKFKDRVAMTRDASINTAYMELTSLRSDDTAVYYCARPYYYGDYWGQGTLVTVSS VL: EIVLTQSPATLSLSPGERATLSCSASSSVSYMHWFQQKPGQPPRLLIYSTSNLASGIPARFSGSGSGTDFTLTISSLEPEDFAVYYCQQRSSYPFTFGGGTKVEIK",,,,10 nM,0.8,0.002 s⁻¹,190000 M⁻¹ s⁻¹,6 min,211 nM,0.8,0.038 s⁻¹,180000 M⁻¹ s⁻¹,0.3 min,no binding,23 nM,0.7,0.00044 s⁻¹,19000 M⁻¹ s⁻¹,26 min
